One may read the EC50 as the concentration needed to bring the measured effect to its halfway point.

Test [1] has as its target T1, human SIRPα variant 2 (human, UniProt P78324 31-504).
T1 construct: full length ORF on transfected CHO-K1 cells; also called hSIRPαV2; SIRPαV2
The experiment in a line: CELISA, CHO-K1 transfectants; average of two experiments. The method, then: (§1) Binding of the humanized antibodies to hSIRPα was studied in CELISA format. Binding of the hSIRPα antibodies to human SIRPαV1, SIRPαV2, hSIRPβ1, and hSIRPγ was confirmed using CHO-K1 cells that had been transiently transfected with cDNA encoding the full length open reading frame of each of these respective targets subcloned into the pCI-neo vector. CHO-K1.hSIRPαV1, CHO-K1.hSIRPαV2, CHO-K1.hSIRPβ1, and CHO-K1.hSIRPγ cells were seeded in culture medium (DMEM-F12 (Gibco) supplemented with 5% New Born Calf Serum (BioWest) and Pen/Strep (Gibco)) in 96-well flat-bottom tissue culture plates and incubated at 37° C., 5% CO₂ and 95% humidity until cell layers were confluent. Subsequently, culture medium was removed and cells were incubated for 1 hour at 37° C., 5% CO₂ and 95% humidity with purified hSIRPα antibodies (10 μg/mL and dilutions thereof). Next, cells were washed with PBS-T and incubated for 1 hour at 37° C., 5% CO₂ and 95% humidity with goat-anti-human IgG-HRP conjugate (Jackson Immuno Research) or goat-anti-mouse IgG-HRP (Southern Biotech). Subsequently, cells were washed three times with PBS-T and anti-hSIRPα immunoreactivity was visualized with TMB Stabilized Chromogen (Invitrogen). Reactions were stopped with 0.5 M H₂SO₄ and absorbances were read at 450 and 610 nm. […] In Table 13 the EC50 values of the humanized hSIRPα antibodies are depicted.
(§2) Table 13: Binding of humanized and parental hSIRPα.50A antibodies to CHO-K1.hSIRPαV1, CHO-K1.hSIRPαV2, CHO-K1.hSIRPβ1, and CHO-K1.hSIRPγ cells.

Test [2] concerns the target T2, human SIRPα variant 1 (human, UniProt P78324 31-504).
T2 construct: full length ORF on transfected CHO-K1 or HEK293 cells; entry includes the signal peptide; also called hSIRPαV1; SIRPαV1
The description is as above. The method, then:
as §1, §2

The target of test [3] is T3, human SIRPγ (human, UniProt Q9P1W8 29-387).
T3 construct: on transfected CHO-K1 cells; also called hSIRPγ
The experiment in a line: CELISA, CHO-K1 transfectants; extrapolated. The method, then: as §1, §2

Test [4] has as its target T4, human SIRPβ1 (human, UniProt O00241 30-398).
T4 construct: also called hSIRPβ1
The experiment in a line: CELISA, CHO-K1 transfectants; nd = not detected. The method, then: as §1, §2

T4 sequence (O00241 30-398 limits assumed): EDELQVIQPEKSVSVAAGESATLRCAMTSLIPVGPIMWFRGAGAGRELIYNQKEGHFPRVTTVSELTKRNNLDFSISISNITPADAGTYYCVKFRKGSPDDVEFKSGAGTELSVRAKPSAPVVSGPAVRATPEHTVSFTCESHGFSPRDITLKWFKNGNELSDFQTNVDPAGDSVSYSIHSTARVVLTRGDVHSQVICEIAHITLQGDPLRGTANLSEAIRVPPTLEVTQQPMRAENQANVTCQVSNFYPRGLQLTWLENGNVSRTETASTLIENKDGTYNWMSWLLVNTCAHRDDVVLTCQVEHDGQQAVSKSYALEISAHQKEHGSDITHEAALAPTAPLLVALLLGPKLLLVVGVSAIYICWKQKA
T1 sequence (P78324 other isoform, or with tags, fused parts or gaps mutant limits assumed): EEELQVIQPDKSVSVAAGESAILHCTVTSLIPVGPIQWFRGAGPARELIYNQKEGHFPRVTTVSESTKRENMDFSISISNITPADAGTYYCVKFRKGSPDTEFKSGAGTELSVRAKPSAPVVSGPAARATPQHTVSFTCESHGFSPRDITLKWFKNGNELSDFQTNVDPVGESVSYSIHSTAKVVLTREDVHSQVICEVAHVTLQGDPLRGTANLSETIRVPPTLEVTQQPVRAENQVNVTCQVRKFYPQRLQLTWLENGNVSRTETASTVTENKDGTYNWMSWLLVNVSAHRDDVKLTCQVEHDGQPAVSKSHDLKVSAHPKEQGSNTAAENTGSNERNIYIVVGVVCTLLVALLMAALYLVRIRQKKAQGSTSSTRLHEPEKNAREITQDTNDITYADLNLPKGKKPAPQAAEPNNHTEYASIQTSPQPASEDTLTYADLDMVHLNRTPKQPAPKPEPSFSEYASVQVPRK
T3 sequence (Q9P1W8 29-387 limits assumed): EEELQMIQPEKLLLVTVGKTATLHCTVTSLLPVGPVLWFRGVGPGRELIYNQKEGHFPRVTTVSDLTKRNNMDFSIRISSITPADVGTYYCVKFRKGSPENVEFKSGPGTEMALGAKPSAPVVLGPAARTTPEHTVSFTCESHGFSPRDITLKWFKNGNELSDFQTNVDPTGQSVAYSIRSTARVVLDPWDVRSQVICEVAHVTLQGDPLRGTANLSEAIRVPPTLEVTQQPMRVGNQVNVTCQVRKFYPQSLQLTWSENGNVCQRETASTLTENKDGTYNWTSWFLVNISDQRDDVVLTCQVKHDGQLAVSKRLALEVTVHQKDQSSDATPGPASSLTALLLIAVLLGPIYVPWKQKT
T2 sequence (P78324 31-504 limits assumed, change not shown): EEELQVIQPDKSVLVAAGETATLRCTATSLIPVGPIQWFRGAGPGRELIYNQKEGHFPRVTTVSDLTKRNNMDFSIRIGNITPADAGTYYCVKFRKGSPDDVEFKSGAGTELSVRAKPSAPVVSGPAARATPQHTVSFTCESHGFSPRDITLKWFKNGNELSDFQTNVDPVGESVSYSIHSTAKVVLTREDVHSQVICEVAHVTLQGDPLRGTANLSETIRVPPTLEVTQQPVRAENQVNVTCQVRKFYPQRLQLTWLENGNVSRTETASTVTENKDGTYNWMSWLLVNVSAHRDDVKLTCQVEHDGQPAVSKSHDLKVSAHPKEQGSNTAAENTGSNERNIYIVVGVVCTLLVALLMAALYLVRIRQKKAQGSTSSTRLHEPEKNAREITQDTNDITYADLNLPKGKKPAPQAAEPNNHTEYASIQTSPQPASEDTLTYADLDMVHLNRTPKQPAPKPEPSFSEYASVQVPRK

B1: hSIRPα.50A.H4L4 (antibody, human IgG4 S228P, kappa, V domains shown)
VH: EVQLQQSGAELVKPGASVKVSCKASGFTFTNYYIHWVRQRPGQGLEWMGWIYPGNVNTKYNEKFKAKATITADKSTSTAYMELSSLTSEDTAVYYCARPTIIATDFDVWGQGTTVTVSS
VL: DIQMTQSPSSLSASVGDRVTITCKASQGVGTAVGWYQKKPGKVPKLLIYWASTRHTGVPDRFSGSGSGTDFTLTINGLQPEDVATYYCQQYSTYPFTFGGGTKLEIKR
notes: human IgG4 S228P, kappa; also called hSIRPα.50H4L4
For B1, the concentration for a half-maximal effect (EC50) was 1.24 nM in test [1], 1.2 nM in test [2] and 1.98 nM in test [3]. Moreover, the binding result in test [4] is “no binding (tested: 10 µg/mL and dilutions thereof)”.

B2: hSIRPα.50A.H4L5 (antibody, human IgG4 S228P, kappa, V domains shown)
VH: EVQLQQSGAELVKPGASVKVSCKASGFTFTNYYIHWVRQRPGQGLEWMGWIYPGNVNTKYNEKFKAKATITADKSTSTAYMELSSLTSEDTAVYYCARPTIIATDFDVWGQGTTVTVSS
VL: DIVLTQSPSFLSASVGDRVTITCKASQGVGTAVGWYQQKPGKSPKLLIYWASTRHTGVPDRFSGSGSGTEFTLTISNLQPEDFAAYYCQQYSTYPFTFGGGTKLEIKR
notes: human IgG4 S228P, kappa; also called hSIRPα.50H4L5
Consider B2, for which the EC50 in test [1] was 0.661 nM; in test [2], 0.701 nM; in test [3], 0.808 nM. Besides, in test [4], the binding result was “no binding (tested: 10 µg/mL and dilutions thereof)”.

B3: hSIRPα.50A.H5L4 (antibody, human IgG4 S228P, kappa, V domains shown)
VH: EVQLVQSGAEVVKPGASVKVSCKASGFTFTNYYIHWVRQAPEQGLEWIGWIYPGNVNTKYNEKFKARVTMTADKSTSTAYMELSSLRSDDMAVYYCARPTIIATDFDVWGQGTTVTVSS
VL: DIQMTQSPSSLSASVGDRVTITCKASQGVGTAVGWYQKKPGKVPKLLIYWASTRHTGVPDRFSGSGSGTDFTLTINGLQPEDVATYYCQQYSTYPFTFGGGTKLEIKR
notes: human IgG4 S228P, kappa; also called hSIRPα.50H5L4
As to B3, the values for the EC50 in test [1], in test [2] and in test [3] were 1.11 nM, 1.17 nM and 4.03 nM, respectively. Besides, in test [4], the binding result is “no binding (tested: 10 µg/mL and dilutions thereof)”.

B4: hSIRPα.50A.H3L3 (antibody, human IgG4 S228P, kappa, V domains shown)
VH: EVQLVQSGAEVVKPGASVMISCKASGFTFTNYYIHWVRQRPGQGLEWIGWIYPGNVNTKYNEKFKARVIMTADKSTSTVYMQLSSLTSEDTAVYYCARPTIIATDFDVWGQGTLVTVSS
VL: ELVMTQSPSSLSASVGDRVTITCKASQGVGTAVGWYQQKPGKAPKLLIYWASTRHTGVPDRFSGSGSGTDFTLAISSLQPEDIADYYCQQYSTYPFTFGGGTKVEIKR
notes: human IgG4 S228P, kappa; also called hSIRPα.50H3L3
With B4, the concentration for a half-maximal effect (EC50) is 1.16 nM in test [1], 1.16 nM in test [2] and 2.47 nM in test [3]. Moreover, the binding result in test [4] was “no binding (tested: 10 µg/mL and dilutions thereof)”.

B5: hSIRPα.50A.H3L5 (antibody, human IgG4 S228P, kappa, V domains shown)
VH: EVQLVQSGAEVVKPGASVMISCKASGFTFTNYYIHWVRQRPGQGLEWIGWIYPGNVNTKYNEKFKARVIMTADKSTSTVYMQLSSLTSEDTAVYYCARPTIIATDFDVWGQGTLVTVSS
VL: DIVLTQSPSFLSASVGDRVTITCKASQGVGTAVGWYQQKPGKSPKLLIYWASTRHTGVPDRFSGSGSGTEFTLTISNLQPEDFAAYYCQQYSTYPFTFGGGTKLEIKR
notes: human IgG4 S228P, kappa; also called hSIRPα.50H3L5
Turning to B5, the results for the half-maximal effective concentration (EC50) in test [1], in test [2] and in test [3] were 0.868 nM, 0.878 nM and 1.2 nM, respectively. Besides, the binding result in test [4] was “no binding (tested: 10 µg/mL and dilutions thereof)”.

B6: hSIRPα.50A.H4L1 (antibody, human IgG4 S228P, kappa, V domains shown)
VH: EVQLQQSGAELVKPGASVKVSCKASGFTFTNYYIHWVRQRPGQGLEWMGWIYPGNVNTKYNEKFKAKATITADKSTSTAYMELSSLTSEDTAVYYCARPTIIATDFDVWGQGTTVTVSS
VL: DIVLTQSPSFLSASVGDRVTITCKASQGVGTAVGWYQQKPGKAPKLLIYWASTRHTGVPDRFSGSGSGTEFTLTISSLQPEDFAAYYCQQYSTYPFTFGGGTKLEIKR
notes: human IgG4 S228P, kappa; also called hSIRPα.50H4L1
As for B6, the EC50 in test [1] was 0.681 nM; in test [2], 0.683 nM; in test [3], 0.95 nM. Besides, the binding result in test [4] is “no binding (tested: 10 µg/mL and dilutions thereof)”.

B7: hSIRPα.50A.H3L4 (antibody, human IgG4 S228P, kappa, V domains shown)
VH: EVQLVQSGAEVVKPGASVMISCKASGFTFTNYYIHWVRQRPGQGLEWIGWIYPGNVNTKYNEKFKARVIMTADKSTSTVYMQLSSLTSEDTAVYYCARPTIIATDFDVWGQGTLVTVSS
VL: DIQMTQSPSSLSASVGDRVTITCKASQGVGTAVGWYQKKPGKVPKLLIYWASTRHTGVPDRFSGSGSGTDFTLTINGLQPEDVATYYCQQYSTYPFTFGGGTKLEIKR
notes: human IgG4 S228P, kappa; also called hSIRPα.50H3L4
Take B7: the EC50 in test [1] is 1.52 nM; in test [2], 1.26 nM; in test [3], 5.17 nM. Besides, the binding result in test [4] is “no binding (tested: 10 µg/mL and dilutions thereof)”.
